Experiment [1] addresses T cell receptor of Ova-specific CD8+ T cells (OT-I), on OT-I cells (mouse). As to the kind of experiment: cell-based or functional assay.
Experiment [2] shares this target. The experiment in a line: flow cytometry; His-tagged protein pre-mixed with PE-labeled α-His mAb, incubated with OT-I cells at 37° C. for 5 hours.

For “Kb(Ova)/ANXA5 carrying a His tag (peptide-MHC)”, the TCR Vα2 expression downregulated, percent of OT-I cells, compared to the α-His/PE control (flow cytometry) in experiment [1] was determined as 90%. Besides, in experiment [2], the mean fluorescence shift relative to the unstained control was found to be 100 fold and the percent of OT-I cells pMHC+ (PE fluorescence) turned out to be 98%.

The record behind these values is patent publication US11987606.
